Columns and labels:
[1] = target: integrin alphaIIb beta3 on human platelets (Homo sapiens, UniProt P08514;P08514;P05106 P08514:32-887,P08514:891-1039,P05106:27-788); test: flow; EDTA-sensitive binding, same for resting and thrombin-activated platelets; Mg2+, Ca2+, room temperature
Method: Human platelets were chosen for this purpose because of their ease of isolation and their high level of expression of integrin αIIbβ₃. Because αIIbβ₃ undergoes a conformational change upon platelet activation, binding of the aptamer to both resting and thrombin-activated platelets was tested. […] Briefly, RNA was transcribed in the presence of a 5-fold molar excess of the initiator nucleotide guanosine-5′-O-(2-thiodiphosphate) (Calciochem), followed by conjugation of the gel-purified RNA to 5-iodoacetamidofluorescein (Pierce, Rockford, Ill.). Platelet-rich plasma was prepared from freshly-drawn citrated human blood by centrifugation at 1000 rpm for 15 minutes in a table top centrifuge. For activated platelets, cells were incubated for 15 minutes at room temperature at 2×10⁷/mL in calcium- and magnesium-free Dulbecco's PBS with 2.5 U/mL thrombin and 5 mM Gly-Pro-Arg-Pro (GPRP) to inhibit platelet aggregation. […] Resting cells were diluted similarly, without exposure to thrombin or GPRP. The activation state of resting and thrombin-treated cells was monitored by staining with fluorophore-conjugated antibodies to CD61 (β₃ integrin subunit), which binds to all platelets, and to CD62 (P-selectin), a marker of platelet activation. […] The incubation mixtures were applied directly to a Becton Dickinson FACSCalibur flow cytometer to determine the mean fluorescence intensity of the sample. […]

integrin alphaV beta5 = integrin alphaV beta5 (Homo sapiens, UniProt P06756;P06756;P18084 P06756:31-889,P06756:891-1048,P18084:24-799); test: no binding observed to immobilized alphaV beta5; details: tags: Chemicon International
Sequence of integrin alphaV beta5 (P06756 31-889, chain 1 of 3): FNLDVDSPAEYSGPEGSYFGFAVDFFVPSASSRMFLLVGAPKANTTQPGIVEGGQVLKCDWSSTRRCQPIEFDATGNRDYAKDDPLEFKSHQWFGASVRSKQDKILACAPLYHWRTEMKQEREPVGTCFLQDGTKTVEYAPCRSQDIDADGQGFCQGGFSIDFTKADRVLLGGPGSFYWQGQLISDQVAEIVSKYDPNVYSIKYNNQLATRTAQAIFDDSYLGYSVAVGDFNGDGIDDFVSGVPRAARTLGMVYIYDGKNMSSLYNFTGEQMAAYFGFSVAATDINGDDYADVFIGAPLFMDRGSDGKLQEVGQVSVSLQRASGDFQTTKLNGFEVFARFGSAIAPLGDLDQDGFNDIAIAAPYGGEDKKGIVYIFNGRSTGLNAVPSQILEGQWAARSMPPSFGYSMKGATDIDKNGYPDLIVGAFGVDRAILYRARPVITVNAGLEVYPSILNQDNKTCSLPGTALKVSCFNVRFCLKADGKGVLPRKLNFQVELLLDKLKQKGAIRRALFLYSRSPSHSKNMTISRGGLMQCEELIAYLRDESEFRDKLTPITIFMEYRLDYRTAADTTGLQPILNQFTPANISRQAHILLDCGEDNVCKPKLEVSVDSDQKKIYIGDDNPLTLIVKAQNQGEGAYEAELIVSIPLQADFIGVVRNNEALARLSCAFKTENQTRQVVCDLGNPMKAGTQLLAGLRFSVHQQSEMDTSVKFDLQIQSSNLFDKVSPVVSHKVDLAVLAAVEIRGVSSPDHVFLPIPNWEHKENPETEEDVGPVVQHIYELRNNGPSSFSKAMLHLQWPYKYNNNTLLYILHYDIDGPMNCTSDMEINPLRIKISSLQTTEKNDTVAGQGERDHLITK
Sequence of integrin alphaV beta5 (P06756 891-1048, chain 2 of 3): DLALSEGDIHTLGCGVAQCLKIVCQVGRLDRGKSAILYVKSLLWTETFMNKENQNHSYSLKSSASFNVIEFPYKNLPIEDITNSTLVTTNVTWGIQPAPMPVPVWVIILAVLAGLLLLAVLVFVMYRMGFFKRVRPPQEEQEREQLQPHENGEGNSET
Sequence of integrin alphaV beta5 (P18084 24-799, chain 3 of 3): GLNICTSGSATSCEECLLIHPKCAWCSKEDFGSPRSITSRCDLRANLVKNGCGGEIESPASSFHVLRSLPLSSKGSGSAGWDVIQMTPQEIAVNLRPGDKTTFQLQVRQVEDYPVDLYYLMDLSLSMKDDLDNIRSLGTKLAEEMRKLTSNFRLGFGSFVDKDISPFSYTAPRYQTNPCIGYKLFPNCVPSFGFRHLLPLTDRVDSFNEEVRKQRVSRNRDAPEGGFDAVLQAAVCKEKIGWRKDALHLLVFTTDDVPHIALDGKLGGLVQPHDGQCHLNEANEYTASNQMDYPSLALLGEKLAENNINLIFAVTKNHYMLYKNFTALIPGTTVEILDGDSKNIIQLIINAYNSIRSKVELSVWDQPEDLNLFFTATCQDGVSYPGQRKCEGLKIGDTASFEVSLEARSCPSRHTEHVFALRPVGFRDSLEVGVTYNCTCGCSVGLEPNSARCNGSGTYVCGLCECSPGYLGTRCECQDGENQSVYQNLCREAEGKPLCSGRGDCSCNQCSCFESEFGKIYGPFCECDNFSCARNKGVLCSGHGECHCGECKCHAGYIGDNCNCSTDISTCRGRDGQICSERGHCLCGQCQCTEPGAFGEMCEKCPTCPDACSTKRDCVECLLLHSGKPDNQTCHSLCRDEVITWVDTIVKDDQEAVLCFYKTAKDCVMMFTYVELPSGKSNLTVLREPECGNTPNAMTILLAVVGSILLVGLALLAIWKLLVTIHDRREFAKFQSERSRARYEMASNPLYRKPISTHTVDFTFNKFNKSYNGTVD
Method: (§1) The affinity of individual RNAs and RNA pools for αᵥβ₃ was determined by titration of biotinylated RNA with a small quantity of immobilized integrin. Bound RNA was detected through the biotin moiety. Biotinylated RNA was prepared according to standard transcription protocols, but including a 5-fold molar excess of a 5′-biotin-modified GMP over GTP in the reaction mixture. Methods for synthesizing 5′-biotin-modified guanosine nucleotides are described in WO 98/30720 entitled “Bioconjugation of Oligonucleotides,” specifically incorporated herein by reference in its entirety. The modified nucleotide is incorporated at the 5′ end of the transcript in proportion to its representation in the guanosine pool. 96-well microtiter plates (Immulon 2, Dynatech Laboratories, Inc., Chantilly, Va.) were coated overnight at 4° C. with 100 μL purified αᵥβ₃ at a concentration of 0.25 μg/mL in 20 mM TrisHCl, pH 7.5, 150 mM NaCl, 1 mM MgCl₂, 2 mM CaCl₂, 0.1 mM MnCl₂. Coating concentrations were 0.8 μg/mL for αIIbβ₃ and 0.3 μg/mL for αᵥβ₅. Wells were blocked with 200 μL of a solution of 3% BSA in the same buffer (1 hour at room temperature) then rinsed 3 times with 200 μL binding buffer (50 mM TrisHCl, pH 7.5, 137 mM NaCl, 2.7 mM KCl, 1 mM MgCl₂, 2 mM CaCl₂, 0.1 mM MnCl₂, 0.1% BSA). […] Color development was monitored by absorbance at 405 nm.

integrin alphaV beta3 [2] = target: T1, integrin alphaV beta3 (Homo sapiens, UniProt P06756;P06756;P05106 P06756:31-889,P06756:891-1048,P05106:27-788); test: inhibition; inhibition of biotinylated fibrinogen binding (6 nM), room temperature
T1 sequence (P06756 31-889, chain 1 of 3): as the sequence (P06756 31-889, chain 1 of 3) above
T1 sequence (P06756 891-1048, chain 2 of 3): as the sequence (P06756 891-1048, chain 2 of 3) above
T1 sequence (P05106 27-788, chain 3 of 3): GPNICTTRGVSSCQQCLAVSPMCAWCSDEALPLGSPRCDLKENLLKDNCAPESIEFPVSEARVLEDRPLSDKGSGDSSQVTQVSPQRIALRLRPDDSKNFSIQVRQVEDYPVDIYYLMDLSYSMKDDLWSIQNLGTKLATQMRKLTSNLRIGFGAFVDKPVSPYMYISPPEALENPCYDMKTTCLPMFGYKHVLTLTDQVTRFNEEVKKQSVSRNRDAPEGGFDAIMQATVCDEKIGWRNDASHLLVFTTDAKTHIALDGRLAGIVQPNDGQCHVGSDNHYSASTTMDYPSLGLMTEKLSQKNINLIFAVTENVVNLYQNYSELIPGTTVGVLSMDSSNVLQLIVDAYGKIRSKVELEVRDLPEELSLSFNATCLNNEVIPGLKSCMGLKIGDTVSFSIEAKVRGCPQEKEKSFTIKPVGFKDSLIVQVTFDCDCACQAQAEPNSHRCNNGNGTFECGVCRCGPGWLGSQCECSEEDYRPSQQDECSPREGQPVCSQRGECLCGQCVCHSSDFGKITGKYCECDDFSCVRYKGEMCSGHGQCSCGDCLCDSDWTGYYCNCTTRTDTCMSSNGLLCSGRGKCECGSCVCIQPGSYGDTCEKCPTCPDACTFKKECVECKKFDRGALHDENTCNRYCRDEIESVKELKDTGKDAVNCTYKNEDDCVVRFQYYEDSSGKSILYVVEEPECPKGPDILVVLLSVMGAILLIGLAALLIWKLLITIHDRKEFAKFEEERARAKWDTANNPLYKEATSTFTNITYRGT
Method: (§2) An estimate of the maximum absorbance value was determined for each ligand/integrin pair in the absence of competitor. The baseline absorbance value was determined by adding 5 mM EDTA to the incubation buffer.
(§3) While the SELEX process identifies RNA sequences with high affinity for a particular target, the procedure used in this example was designed to bias for the recovery of ligand binding site inhibitors by the inclusion of a cRGD peptide competitor in the elution buffer. To test whether aptamer 17.16 could block the ligand binding site of αᵥβ₃ or αIIbβ₃, purified vitronectin and fibrinogen were biotinylated and incubated with one or both of the immobilized integrins in the presence or absence of varying concentrations of the aptamer or a non-binding control RNA. This was done as follows: purified integrin ligands, vitronectin and fibrinogen, were biotinylated according to (Smith et al. (1990) J. Biol. Chem. 265:12267-71). Briefly, proteins were dialyzed into 0.1 M NaHCO₃, 0.1 M NaCl. N-hydroxysuccinimido-LC-biotin (Pierce) was dissolved at 1 mg/mL in DMSO and added to the protein at a ratio of 0.1 mg biotin per 1 mg protein. The reaction was allowed to rotate at room temperature for 2 hours. Biotinylated proteins were dialyzed into phosphate-buffered saline and their concentrations determined by absorbance at 280 nm. […] Absorbance was read at 405 nm.

integrin alphaIIb beta3 [3] = target: T2, integrin alphaIIb beta3 (UniProt P08514;P08514;P05106 P08514:32-887,P08514:891-1039,P05106:27-788); test: as above; details: tags: Enzyme Research Laboratories
Method: as §2, §3

integrin alphaIIb beta3 [4] = target: T2, integrin alphaIIb beta3; test: affinity identical to alphaV beta3; platelet Kd of ~10 nM stated equivalent to purified alphaIIb beta3; details: tags: Enzyme Research Laboratories
Method: as §1

integrin alphaV beta3 [5] = target: T1, integrin alphaV beta3; test: microtiter plate, streptavidin-AP; Mg2+, Ca2+, Mn2+, pH 7.5, 37 C
Method: The affinity of individual RNAs and RNA pools for αᵥβ₃ was determined by titration of biotinylated RNA with a small quantity of immobilized integrin. Bound RNA was detected through the biotin moiety. Biotinylated RNA was prepared according to standard transcription protocols, but including a 5-fold molar excess of a 5′-biotin-modified GMP over GTP in the reaction mixture. Methods for synthesizing 5′-biotin-modified guanosine nucleotides are described in WO 98/30720 entitled “Bioconjugation of Oligonucleotides,” specifically incorporated herein by reference in its entirety. The modified nucleotide is incorporated at the 5′ end of the transcript in proportion to its representation in the guanosine pool. 96-well microtiter plates (Immulon 2, Dynatech Laboratories, Inc., Chantilly, Va.) were coated overnight at 4° C. with 100 μL purified αᵥβ₃ at a concentration of 0.25 μg/mL in 20 mM TrisHCl, pH 7.5, 150 mM NaCl, 1 mM MgCl₂, 2 mM CaCl₂, 0.1 mM MnCl₂. Coating concentrations were 0.8 μg/mL for αIIbβ₃ and 0.3 μg/mL for αᵥβ₅. Wells were blocked with 200 μL of a solution of 3% BSA in the same buffer (1 hour at room temperature) then rinsed 3 times with 200 μL binding buffer (50 mM TrisHCl, pH 7.5, 137 mM NaCl, 2.7 mM KCl, 1 mM MgCl₂, 2 mM CaCl₂, 0.1 mM MnCl₂, 0.1% BSA). Individual RNAs or RNA pools were denatured briefly at 93° C. in binding buffer without divalent cations or BSA, then serially diluted in the same buffer. 50 μL binding buffer containing 2×-concentrations of divalent cations and BSA were added to each well, followed by 50 μL RNA dilution. RNAs were allowed to incubate in the integrin-coated wells at 37° C. for 30-60 minutes. Unbound RNAs were removed by 3 rapid washes in binding buffer. To detect bound RNA, 100 μL of a 1:2500 dilution in binding buffer of streptavidin-alkaline phosphatase conjugate (Calbiochem) were incubated in each well for 30 minutes at room temperature, followed by three rapid washes, as above. 100 μL/well p-nitrophenyl phosphate (Sigma Chemical Co., St. Louis, Mo.) was added and incubated at room temperature for 30 minutes. Color development was monitored by absorbance at 405 nm.

integrin alphaV beta3 [6] = target: T1, integrin alphaV beta3; test: inhibition; inhibition of biotinylated vitronectin binding (10 nM), room temperature
Method: as §3

B1: 17.16 (ssRNA)
RNA: GGGAGACAAGAAUAAACGCUCAAUUCAACGCUGUGAAGGGCUUAUACGAGCGGAUUACCCUUCGACAGGAGGCUCACAACAGGC
modifications: 2'-F C and U
With B1 the Kd [1] was roughly 10 nM, the binding result (integrin alphaV beta5) was “no binding” and the IC50 (integrin alphaV beta3 [2]) was 9.5 nM. It also gave an IC50 (integrin alphaIIb beta3 [3]) of 6.5 nM, a Kd (integrin alphaIIb beta3 [4]) of roughly 10 nM and a Kd (integrin alphaV beta3 [5]) of 8 nM. For the same binder, the IC50 (integrin alphaV beta3 [6]) was 4.7 nM.

Source: patent US20020150536, “Nucleic acid ligands to integrins” (GILEAD SCIENCES, INC., published 2002)
